Measured values from US20190241668A1 (ARGENX, published 2019).

T1: TIM-3 (T cell immunoglobulin and mucin-domain containing-3) (human, UniProt Q8TDQ0 22-200, limits assumed)
T1 construct: also called TIMD-3; HAVCR2
T1 sequence (looked up): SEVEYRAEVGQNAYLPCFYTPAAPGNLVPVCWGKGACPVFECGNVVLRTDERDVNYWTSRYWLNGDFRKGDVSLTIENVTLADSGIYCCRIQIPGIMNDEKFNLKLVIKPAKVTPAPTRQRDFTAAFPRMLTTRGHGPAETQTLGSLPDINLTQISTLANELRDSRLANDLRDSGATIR


Tests used:
[1] = target: T1, TIM-3 (T cell immunoglobulin and …); assay: Biacore, Fab on TIM-3
[2] = target: T1, TIM-3 (T cell immunoglobulin and …); assay: ELISA, Fab on TIM-3

koff [1] | EC50 [2] | Binder
1.04e-05 s⁻¹ | 0.00821 µg/mL | Fab clone 2C6 (Fab, V domains shown, Llama-derived Fab from an immune library; the constant domains of the Fab are not) VH: QVQLVESGGGLVQPGGSLRLSCAASGFAFSSYDMSWVRQAPGKGPEWVSTINSGGGSTSYADSVKGRFTISRDNAKNTVYLQMNSLKPEDTAVYYCAARSLYYTRVPMYDYWGQGTQVTVSK VL: QAVVTQEPSLSVSPGGTVTLTCGLSSGSVTTNNYPGWFQQTPGQAPRTLIYSTSSRHSGVPSRFSGSISGNKAALTITGAQPEDEADYYCALDIGSYTAVFGGGTHLTVL
3.64e-05 s⁻¹ | 0.00852 µg/mL | Fab clone 2B6 (Fab, V domains shown, Llama-derived Fab from an immune library; the constant domains of the Fab are not) VH: QVQLVESGGGLVQPGGSLRLSCAASGFAFSSYDMSWVRQAPGKGLEWVSTINSGGGSTNYADSMKGRFTISRDNAKNTVYLQMNSLKPEDTAVYYCAARSPYYTRVPLYDYWGQGTQVTVSS VL: QAVVTQEPSLSVSLGGTVTLTCGLRSGSVTTSNYPGWFKQTPGQAPRTLIFGASSRHSGVPSRYSGSISGNKAALTITGAEPEDEADYYCALNKGTYTDVFGGGTKLTVL
0.000166 s⁻¹ | 0.00717 µg/mL | Fab clone 2D6 (Fab, V domains shown, Llama-derived Fab from an immune library; the constant domains of the Fab are not) VH: QVQLQESGGGLVQPGGSLTLSCAASGFFFSSYAMSWVRQAPGKGLEWVSSISAGGGTSYYADSVKGRFTISRDSAKNTLVLQMNSLKPEDTAVYYCAKKRQNFWSEGYDSWGQGTQVTVSS VL: HSAVTQPPSVSGSPGKAVTISCVGSSSDVGYGDYVSWYQQLPGMAPKLLIYDVEKRASGIPDRFSGSKSGNTASLTISGLQSEDEADYYCASYRSDSNFVFGGGTHLAVL
 | 0.121 µg/mL | Fab clone 2E2 (Fab, V domains shown, Llama-derived Fab from an immune library; the constant domains of the Fab are not) VH: QLQLVESGGGLVQPGGSLRLSCAASGFTFGSYDMSWVRQAPGKGPEWVSRITSGGGSTYADSVKGRFTISRDNAKNTLSLQMNSLKSEDTAVYYCAAGQYSDGYYPYDYWGQGTQVTVSS VL: DIVMTQSPSSLSASLGDRVTITCQASQSISSYLAWYQQKPGQGPKLLIYGASRLEPGVPSRFSGSGSGTSFTLTISGVEAEDLATYYCLQDYSWPYSFGSGTRLEIK
1.85e-05 s⁻¹ | 0.014 µg/mL | Fab clone 2B10 (Fab, V domains shown, Llama-derived Fab from an immune library; the constant domains of the Fab are not; also called 2610; 21310) VH: QVQLQESGPGLVKPSQTLSLTCTVSGGSITTNRYLWTWIRQTPGKGLEWVGAIAYSGRTYYSPSLKSRTSISRDTSKNQFTLQLSSVTPEDTGVYYCAHFTGWGGYYWGQGTQVTVSS VL: QSALTQPPSVSGTLGKTVTISCAGTSSDIGGYNSVSWYQQLPGTAPKLLIYEVNKRASGIPDRFSGSKSGNTASLSISGLQSEDEADYYCASYRSANNVVFGGGTKLTVL
6.64e-05 s⁻¹ | 0.0149 µg/mL | Fab clone 2E9 (Fab, V domains shown, Llama-derived Fab from an immune library; the constant domains of the Fab are not) VH: EVQLVESGGGLVQPGGSLRLSCAASGFTFDDYTMSWVRQVPGKGLEWISGISGNGGRTDYVEPIEGRFTISRDNAKNTLYLQMNSLKSEDTAVYYCAKTSPQSLDYWGQGTQVTVSS VL: DIVMTQSPSSVTASVGEKVTINCKSSQSVVSGSNQKSYLNWYQQRPGQPPRLLIYYASTQESGIPDRFSGSGSTTDFTLTISSVQPEDAAVYYCQQAYSAPYNFGSGTRLEIK
7.62e-05 s⁻¹ | 0.0133 µg/mL | Fab clone 2E7 (Fab, V domains shown, Llama-derived Fab from an immune library; the constant domains of the Fab are not) VH: ELQVVESGGGLVQPGGSLRLSCAASGFTFGSYDMSWHRQAPRKGPEWVSTISAGGGRTYYADSVKGRFTISRDNAKNTLYLQMNSLKPEDTAVYFCTKIVLDSWGQGTQVTVSS VL: DVVLTQTPGSLSVVPGESASISCKASQSLIHIDGKTYLYWLLQKPGRRPELLIYQVSNHESGVPDRFTGSGSGTDFTLKISGVKAEDAGVYYCAQATYYPSFGSGTRLEIK
8.53e-05 s⁻¹ | 0.0181 µg/mL | Fab clone 2F8 (Fab, V domains shown, Llama-derived Fab from an immune library; the constant domains of the Fab are not) VH: EVQLVESGGGLVQPGGSLRLSCAASGFTFGSYDMSWVRQAPGKGPEWVSTISAGGGRTYYADSVKDRFTISRDNAKNTLYLQMNSLKPEDTAVYYCAKVVIDYWGQGTQVTVSS VL: DVVLTQTPGSLSVVPGESASISCKASQSLVHTDGKTYVYWLLQKPGQRPHLLIYQVSNHESGVPDRFTGSGSGTDFTLKISGVKAEDAGVYYCAQATYYPSFGSGTRLEIK
4.87e-05 s⁻¹ | 0.00851 µg/mL | Fab clone 2B9 (Fab, V domains shown, Llama-derived Fab from an immune library; the constant domains of the Fab are not) VH: EVQLQESGPGLVKPSQTLSLTCTVSGASVTTRYNYWSWIRQPPGKGLEWMGAITYSGSTYYSPSLKSRTSISRDTSKNQFTLQLSSVTPEDTAVYYCATEGSSSTGVSRYSFGSWGQGTQVTVSS VL: ATMLTQSPGSLSVVPGESASISCKASQSLTHTDGTTALYWLQQKPGQRPQLLIYEVSVRASGVPDRFTGSGSGSDFTLKINGVKAEDAGVYYCAQVAYYPTFGQGTKVELK
4.41e-05 s⁻¹ | 0.00805 µg/mL | Fab clone 2A2 (Fab, V domains shown, Llama-derived Fab from an immune library; the constant domains of the Fab are not) VH: EVQVQESGGGLVQPGGSLRLSCAASGFTFSSYAMSWVRQAPGKGLEWVSDINSGGGSTVYTDSVKGRFTISRDNAKNTLYLQMNSLKPDDTAVYYCATGGSYYSYRLFDYWGQGTQVTVSS VL: DIQMTQSPSSVIVSAGEKVTINCKSSQSVLDSSNQKNYLAWYQQRLGQSPRLLIYWASTRESGVPDRFSGSGSTTDFTLTISSFQPEDAAVYYCQQGYSVPVTFGQGTKVELKR
 | 0.0114 µg/mL | Fab clone 2A9 (Fab, V domains shown, Llama-derived Fab from an immune library; the constant domains of the Fab are not) VH: QVQLVESGPGLVKPSQTLSLTCTVSGGSITTSDDAWSWIRQPAGKGLEWMGVIAYDGSTRYSPSLQSRTSISRDTSKNQFSLQLSSVTPEDTAVYYCARTKGVGGTWALDAWGQGTLVTVSS VL: EIVLTQSPSSVTASVGEKVTINCKSSQSVLSSSNQKNYLSWYQQRLGQSPRLLITWASTRESGVPDRFSGSGSTTDFTLTISSFQPEDAAVYYCQQGYGAPLTFGQGTKVELKR
0.000151 s⁻¹ | 0.0104 µg/mL | Fab clone 2A6 (Fab, V domains shown, Llama-derived Fab from an immune library; the constant domains of the Fab are not) VH: QVQLVESGGGLVQPGGSLRLSCAASGFTFSNYWMYWVRQAPGKGLEWVSTINTNGAITLYADNVKDRFTVSRDNAKNTLYLQMNSLKSEDTAVYYCAKVKLSGYPHPYYAMDYWGKGTLVTVSS VL: NFMLTQPPSLSGSLGQSARLTCTLGSGNSIGAHTISWYQQKAGSPPRYLLNYYSDSSNHQASGVPSRFSGSKDDSTNAGLLLISGLQPEDEADYYCAAGDGSGTVFGGGTKLTVL
3.72e-05 s⁻¹ | 0.0133 µg/mL | Fab clone 2G6 (Fab, V domains shown, Llama-derived Fab from an immune library; the constant domains of the Fab are not) VH: EVQLVESGGGLVQPGGSLRLSCAASGFTFSSYSMSWVRQAPGKGPEWVSGINTSGGTTSYAASVKGRFTVSRDNAKNTLSLQMNSLEPEDTAVYYCVKHIRWSGSNYYYYGMDYWGKGTLVTVSS VL: QAVLTQPPSVSGSPGQRFTISCTGSNRNIGNNYVNWYQQLPGTAPKLLIYSDNLRTSGVPARFSASKSGTTSSLTISGLQAEDEAVYYCSSWDDSLSGAVFGGGTHLTVL
2.48e-05 s⁻¹ | 0.01 µg/mL | Fab clone 1A11 (Fab, V domains shown, Llama-derived Fab from an immune library; the constant domains of the Fab are not) VH: EVQLVESGGGLVQPGGSLRLSCAASGFTFSSYAMSWVRQAPGKGPEWVSHINSGGGNTKYADSVKGRFTISRDNAKNTLYLQMNTLKPEDTAVYYCAKDVSGGYYGTYALDAWGQGTQVVVSS VL: SYELTQSPSVSVALKQTAKITCGGDNIGSKSAQWYQQKPGQAPVLVIYADSRRPSGIPERFSGSNSGNTATLTISGAQAEDEADYYCQVWDSSAAVFGGGTHLTVL
